According to the nanobody polyreactivity screen of Harvey et al. (2022):

Test: yeast display, Sf9 membrane polyspecificity reagent, FACS + sequencing; frameworks hold sequencing errors
How it was run: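 In a synthetic yeast display library (Saccharomyces cerevisiae BJ5465), nanobody expression was induced with galactose for 36–48 hours. FACS gates were set low and high (top ~1%) using anti-HA fluorescence for expression and streptavidin fluorescence for binding of the Sf9 membrane reagent. Each polyreactivity label is drawn from the gate of origin.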

Sequence	polyreactivity (PSR sort gate)
QVQLVESGGGLVQAGGSLRLSCAASGSTFYRYTMGWYRQAPGKERELVAAISRSGGRTYYADSVKGRFTISRDNAKNTVYLQMNSLIPEDTAVYYCNAEIASSAVQAQEGDYWGQGTQVTVSS	high polyreactivity
QVQLVESGGGLVQAGGSLRLSCAASGSTFYSNAMGWYRQAPGKERELVAAINRGSSTYYADSVKGRFTISRDNAKNTVYLQMNSLKPDDTAVYYCAVDYFWYEMDYWGQGTQVTVSS	low polyreactivity
QVQLVESGGGLVQAGGSLRLSCAASGSTFYSNAMGWYRQAPGKERELVDSISWSSGSTYYADSVKGRFTISRDNAKNTVYLQMNSLKPEDTAVYYCATDAGGPYRFGYWGQGTQVTVSS	low polyreactivity
QVQLVESGGGLVQAGGSLRLSCAASGSTFYSNTMGWYRQAPGKERELVAAITRSGGSTYYADSVKGRFTISRDNAKNTVYLQMNSLKPEETAVYYCNTGYKTRALYWPYDYWGQGTLVTVSS	high polyreactivity
QVQLVESGGGLVQAGGSLRLSCAASGSTFYSYAMGWYRQAPGKERELVAAISWRGGTTYYADSVKGRFTISRDNAKNTVYLQMNSLKPEDTAVYYCNARFYRWRSYGYDYWGQGTQVTVSS	high polyreactivity
QVQLVESGGGLVQAGGSLRLSCAASGSTFYSYAMGWYRQAPGKERELVAAITSRGDRTYYADSVKGRFTISRDNAKNTVYLQMNSLKPEDTAVYYCAAEQSWQGYAYYYWGQGTQVTVSS	high polyreactivity
QVQLVESGGGLVQAGGSLRLSCAASGSTFYTNAMGWYRPAPGKEREFVAAISWSGSSTYADSVKGRFTISRDNAKNTVYLQMNSLKPEDTAVYYCAADWFKLRTDYYWGQGTQVTVSS	low polyreactivity
QVQLVESGGGLVQAGGSLRLSCAASGSTFYTNAMGWYRQAPGKERELVAAINRSGGRSYYADSVKGRFTISRDNAKNTVYLQMNSLKQEDTAVYYCAARYPLRISTDTARDYYWGQGTQVTVSS	low polyreactivity
QVQLVESGGGLVQAGGSLRLSCAASGSTFYTNDMGWYRQAPGKERELVAAITSSGNTNYADSVKGRFTISRDNAKNTVFLQMNCLKPEDTAVYYYYYYQYDYWGQGTQVTVSS	low polyreactivity
QVQLVESGGGLVQAGGSLRLSCAASGSTFYTYAMGWYRQAPGKEMELVADITRGGSTYYADSVKGRFTISRDNAKNTVYLQMNSLKPEDTAVYYCAADYTWLSFFEFDYWGQGTQVTVSS	high polyreactivity
QVQLVESGGGLVQAGGSLRLSCAASGSTFYTYAMGWYRQAPGKERELVAAISYRGGSTYYADSVKGRFTISRDNAKNTVYLQMNSLKPEDTSVYYCKVDGVVVGTKRGGYDYWGQGTQVTVSS	low polyreactivity
QVQLVESGGGLVQAGGSLRLSCAASGSTFYTYAMGWYRQAPGKERELVAAITFSGDSKYYADSVKGRFTISRDNAKNTVYLQMNSLKPEDTAVYYCAALQKRYYRSWVGYDYWGQGTQVTVSS	high polyreactivity
QVQLVESGGGLVQAGGSLRLSCAASGSTFYTYAMGWYRQAPGKERELVARIRWSVGSTYYADSVKGRFTISRDNAKNTVYLQMNSLKPEDTAVYYCAADYYKRYKYLYDYWGQGTQVTVSS	high polyreactivity
QVQLVESGGGLVQAGGSLRLSCAASGSTFYTYDMGWYRQAPGKERELVAAISRRDGITYYADSVKGRFTISRDYATNTVYLQMNSLNPEDSAVYYCAAEDAYRYYDFDYWGQGTQVTVSS	low polyreactivity
QVQLVESGGGLVQAGGSLRLSCAASGSTFYTYPMGWYRQAPGKERELVAAISYRGGSTYYADSVKGRFTISRDTAKNTVYLQMNSMKPEDSAVYYCNVVGVVVGTKRGGYDYWGQGTHVTVSS	low polyreactivity
QVQLVESGGGLVQAGGSLRLSCAASGSTFYVNAMGWYRQAPGKERELVAAITSGGSTKYADSVKGRYTISCDNAKNTVYLQMNSLKPEDTAVDDCAAPRGRALSKVRYDDEYWGQGTQVTVSS	high polyreactivity

Sequence	polyreactivity (PSR sort gate)
QVQLVESGGGLVQAGGSLRLSCAASGSTFYVNAMGWYRQTPGKEREFVAAITWNSGSTYYADSVKGRFTISRDNEKNTVYLQMNSLKPEDTAVYYCAAVLSVRVYGYDYWGQGTQVTVSS	low polyreactivity
QVQLVESGGGLVQAGGSLRLSCAASGSTFYVNAMGWYSQAPGKEREFVAAITWNSGSTYYADSVKGRFTISRDNAKNTVYLQMNSLKPEDTAVYYCAAVLSVRVYGYDYWGQGTQVTVSS	low polyreactivity
QVQLVESGGGLVQAGGSLRLSCAASGSTFYVNVMGWYRQAPGKERELVAGITIRDGSTYYADSVKGRFTISRDNAKNTVYLQMNSLKPEDTAVYYCARAGDGEYKRDYWGQGTQVTVSS	low polyreactivity
QVQLVESGGGLVQAGGSLRLSCAASGSTFYVYAMGWYRPAPGKERELVATISSSGAITYYADSVKGRFTISGDNAKNTVYLQMNSLKPEDTAVYYCARTGSLLSQVWYNYWGQGTQVTVSS	low polyreactivity
QVQLVESGGGLVQAGGSLRLSCAASGSTFYVYAMGWYRQAPGKERELVAAISKRGGTTYYADSVKGRFTISRDNAKNTVYLQMNSLKPEDTAVYYCATVSSSRDHDYWGQGTQVTVSS	high polyreactivity
QVQLVESGGGLVQAGGSLRLSCAASGSTFYVYAMGWYRQAPGKERELVAAITVRGGSTYYADSVKGRFTISRDNAKKTVYLQMNSLKPEDTAVYYCNAEGTYGYWRSYNYWGQGTQVTVSS	high polyreactivity
QVQLVESGGGLVQAGGSLRLSCAASGSTFYVYAMGWYRQAPGKERELVAGITDSGGSTYADSVKGRFTISRDNAKNTVYLQMNSLKPEVTAVYYCAADGETLTPRILGESEGDYWGQGTQVTVSS	low polyreactivity
QVQLVESGGGLVQAGGSLRLSCAASGSTFYVYVMGWYRQAPGKERELVAVIDWRGGSTYYADSVKGRFTISRDNAKNTVYLQMNSLKPEDTAVYYCNKDAQFYYKLPYYKERDWGQGTQVTVSS	low polyreactivity
QVQLVESGGGLVQAGGSLRLSCAASGSTFYWYAMGWYRQAPGKERELVAAITSTGGSTYADSVKGRFTISRDNAKNTVYFQMNSLKPEDTAVYYWNVDTSSPSRRDYDYWGQGTQVTVSS	low polyreactivity
QVQLVESGGGLVQAGGSLRLSCAASGSTFYWYAMGWYRQAPGKERQLVAAITRNAGSTYYADTVKGRFTISRDNAKNTVYVQMNSLKPEDTAVSYCAADGARSAFLLAYYYWGQGTQVTGSS	low polyreactivity
QVQLVESGGGLVQAGGSLRLSCAASGSTFYYHGRGWSRQAPGKERELVAVISISGGSTYYADSVKGSFTISRDNAKNTVDLQMNSLKPEDTAVYYCATSYVGRSAYRSYGARGGYWGQGTQVTVSS	low polyreactivity
QVQLVESGGGLVQAGGSLRLSCAASGSTFYYNAMGCYRQAPGKERELVAAISSDGSTNYADSVKGRFTISRDNAKNTVYLQMNSLKPEDTAVYYCAAENIVYVRSNWYWGYDYWGQGTQVTVSS	low polyreactivity
QVQLVESGGGLVQAGGSLRLSCAASGSTFYYNAMGWYRQAPGKEREFVASISWRGGRTYYADSVKGRFTISRDNAKNTVYLQMNSLKPEDTAVYYCAKGYLALGQPDDYWGQGTQVTVSS	high polyreactivity
QVQLVESGGGLVQAGGSLRLSCAASGSTFYYNAMGWYRQAPGKERELVAAISKRGGTTSYADSVKGRFTISRDNAKNTVFLQMNSLKPEDTAVYYCAAQTYLRQFYRYDWGQGTQVTVSS	high polyreactivity
QVQLVESGGGLVQAGGSLRLSCAASGSTFYYNAMGWYRQAPGKERELVARISRSGGSTYADSVKGRFTISRDNAKNTVYLQMNSLIPEDTAVYYCNADAYGTPEFTSYAVRYDYWGQGTQVTVSS	low polyreactivity
